Experimental findings from US20250215097A1 (BEIJING TIANNUOJIANCHENG PHARMA TECH, published 2025) are described below.

Assay [1] concerns the target T1, human CCR8 (human, UniProt P51685 1-355). In words: cell-based or functional assay.
Assay [2] concerns the target T1, human CCR8. The assay can be described thus: flow cytometry, chimeric IgG on CHO-hCCR8 cells. How it is done: 5×10⁴ CHO-hCCR8 or CHO-cynoCCR8 cells were added per well in a 96-well U-shaped plate and centrifuged to discard the supernatant, 100 μL of a gradiently diluted anti-CCR8 chimeric antibody or anti-KLH isotype control antibody was added per well and the mixture was incubated on ice for 60 minutes. After the unbound primary antibody was washed away, 50 μL of a secondary antibody AlexaFluro647 anti-human IgG (Jackson Immuno Research #109-606-170) was added per well and the mixture was incubated on ice for 30 minutes. After the washing, 50 μL of 5 μg/mL of a PI/BSA solution was added to each well and the mixture was incubated on ice for 5 minutes. Then excess secondary antibody was washed away with 0.5% BSA, the cells were resuspended by adding a PBS solution, and binding of the antibody to the cells was detected using a flow cytometer (Intellicyte iQue). The fluorescence value of a Pi-negative cell population was analyzed. Cell-binding curves were fitted by Graphpad Prism 7 (FIG. 2). The chimeric antibodies of 87D8, 102H5, 109F6, 110G2, 113B3, 139A9, 144D2, etc. all bound with high affinities to human CCR8+ cells CHO-hCCR8 and cynomolgus monkey CCR8+ cells CHO-cynoCCR8.
Background: Flow cytometry measures light scatter and fluorescence of single cells or particles in a stream.

Assay [3] addresses T1, human CCR8. The assay can be described thus: flow cytometry, purified Fab on CHO-hCCR8 cells.
In assay [4] the target is T2, human CCR4 (human, UniProt P51679 1-360).
T2 construct: also called hCCR4; human CCR4+ cells
T2 sequence: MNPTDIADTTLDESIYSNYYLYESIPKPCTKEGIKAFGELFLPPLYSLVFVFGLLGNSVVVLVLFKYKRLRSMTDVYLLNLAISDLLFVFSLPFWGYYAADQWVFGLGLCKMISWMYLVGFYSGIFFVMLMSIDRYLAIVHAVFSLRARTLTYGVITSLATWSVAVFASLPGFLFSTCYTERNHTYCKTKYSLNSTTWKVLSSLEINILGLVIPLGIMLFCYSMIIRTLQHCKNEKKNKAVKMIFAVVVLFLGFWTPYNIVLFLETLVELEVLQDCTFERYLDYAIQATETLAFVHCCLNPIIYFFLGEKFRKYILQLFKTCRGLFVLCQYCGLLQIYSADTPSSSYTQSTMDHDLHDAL
The assay can be described thus: flow cytometry of purified Fab on cells stably expressing human CCR4. How it is done:
The positive clones obtained in example 1 were re-induced to express and purified to obtain a Fab antibody. The binding to cells stably expressing human CCR8, cynomolgus monkey CCR8 and human CCR4 was tested respectively, 5×10⁴ test cells were added to each well of a 96-well U-shaped plate and centrifuged to discard the supernatant, 100 μL/well of the purified Fab antibody was added and the mixture was incubated on ice for 60 minutes. After washing away the unbound primary antibody, 50 μL of a secondary antibody solution (Anti-human IgG, F(ab′)2-AF647, Jackson Immuno Research) was added to each well and the mixture was incubated on ice for 30 minutes. After washing, 50 μL of a PI/BSA solution at 5 μg/mL was added to each well and the mixture was incubated on ice for 5 minutes. Then excess secondary antibody was washed away with 0.5% BSA, the cells were resuspended by adding a PBS solution, and binding of the antibody to the cells was detected using a flow cytometer (Intellicyte iQue).

T1 sequence (P51685 whole entry): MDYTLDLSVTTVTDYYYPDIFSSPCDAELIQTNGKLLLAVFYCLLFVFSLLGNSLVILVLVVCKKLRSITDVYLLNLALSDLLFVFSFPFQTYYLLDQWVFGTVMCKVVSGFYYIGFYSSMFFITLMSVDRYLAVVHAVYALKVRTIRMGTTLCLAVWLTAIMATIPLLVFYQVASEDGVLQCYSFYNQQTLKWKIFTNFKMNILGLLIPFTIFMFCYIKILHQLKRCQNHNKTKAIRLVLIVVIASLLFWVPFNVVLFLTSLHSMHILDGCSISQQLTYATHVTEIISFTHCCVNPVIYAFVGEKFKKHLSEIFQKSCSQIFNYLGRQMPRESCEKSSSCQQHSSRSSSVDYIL

B1: 29A8 anti-CCR8 chimeric antibody (antibody, V domains shown)
VH: EVQLVESGGGLVQPKGSLKLSCAASGFTFNAFAMNWVRQAPGKGLEWVARIRSKSNNYATYYADSVIDRFTISRDDSQSMLYLQMNNLKTEDTAMYYCVRGKEAGAYYAMDYWGQGTSVTVSS
VL: DIVMTQAAPSVPVTPGESVSISCRSSKSLLHSNGNTYLYWFLQRPGQSPQLLIYRMSNLASGVPDRFSGSGSGTAFTLRISKVEAEDVGVYYCMQHLEYPFTFGGGTKLEIK
A word on the EC50: it is the concentration needed to bring the measured effect to its halfway point. Read a low EC50 as higher potency in that assay. Regarding B1, the “ADCC EC50 (nM), NK92-CD16A effectors, HEK293-hCCR8 targets, LDH release” value in assay [1] is 0.1 nM. The molecule also had an EC50 in assay [2] of 3.24 nM.

B2: 144D2 G34R (Fab, V domains shown)
VH: EVQLVESGGGLVQPKGSLKLSCAASGFTFNAFAMNWVRQAPGKGLEWVARIRSKSNNYATYYADSVIDRFTISRDDSQSMLYLQMNNLKTEDTAMYYCVRGKEAGAYYAMDYWGQGTSVTVSS
VL: DIVMTQAAPSVPVTPGESVSISCRSSKSLLHSNRNTYLYWFLQRPGQSPQLLIYRMSNLASGVPDRFSGSGSGTAFTLRISRVEAEDVGVYYCMQHLEYPLTFGAGTKLEIK
notes: Purified Fab mutant
For B2, the midpoint of the response in assay [3], the EC50, lay at 1.34 nM.

B3: 30A7 anti-CCR8 chimeric antibody (antibody, V domains shown)
VH: QVQLVESGGGLVQPKGSLKLSCAASGFTFNTYAMNWVRQAPGKGLEWVARIRSKSNYYATYYADSVKDRFTISRDDSQSMLYLQMNNLKTEDTAMYYCLRGKEAGAYYAMDYWGQGTSVTVSS
VL: DIVMTQAAPSVPVTPGESVSISCRSSKSLLHSNGNTYLYWFLQRPGQSPQLLIYRMSNLASGVPDRFSGSGSGTAFTLRISRVEAEDVGVYYCMQHLEYPFTFGAGTKLEIK
As to B3, in assay [1], the “ADCC EC50 (nM), NK92-CD16A effectors, HEK293-hCCR8 targets, LDH release” value turned out to be 0.21 nM. For the same molecule, the EC50 in assay [2] was 3.39 nM.

B4: 144D2 N33Y (Fab, V domains shown)
VH: EVQLVESGGGLVQPKGSLKLSCAASGFTFNAFAMNWVRQAPGKGLEWVARIRSKSNNYATYYADSVIDRFTISRDDSQSMLYLQMNNLKTEDTAMYYCVRGKEAGAYYAMDYWGQGTSVTVSS
VL: DIVMTQAAPSVPVTPGESVSISCRSSKSLLHSYGNTYLYWFLQRPGQSPQLLIYRMSNLASGVPDRFSGSGSGTAFTLRISRVEAEDVGVYYCMQHLEYPLTFGAGTKLEIK
notes: Purified Fab mutant
Take B4: the 50% effective concentration (EC50) in assay [3] is 13.8 nM.

B5: 144D2 N33R (Fab, V domains shown)
VH: EVQLVESGGGLVQPKGSLKLSCAASGFTFNAFAMNWVRQAPGKGLEWVARIRSKSNNYATYYADSVIDRFTISRDDSQSMLYLQMNNLKTEDTAMYYCVRGKEAGAYYAMDYWGQGTSVTVSS
VL: DIVMTQAAPSVPVTPGESVSISCRSSKSLLHSRGNTYLYWFLQRPGQSPQLLIYRMSNLASGVPDRFSGSGSGTAFTLRISRVEAEDVGVYYCMQHLEYPLTFGAGTKLEIK
notes: Purified Fab mutant
In assay [3], B5 yielded an EC50 of 6.75 nM.

B6: 144D2 G34Y (Fab, V domains shown)
VH: EVQLVESGGGLVQPKGSLKLSCAASGFTFNAFAMNWVRQAPGKGLEWVARIRSKSNNYATYYADSVIDRFTISRDDSQSMLYLQMNNLKTEDTAMYYCVRGKEAGAYYAMDYWGQGTSVTVSS
VL: DIVMTQAAPSVPVTPGESVSISCRSSKSLLHSNYNTYLYWFLQRPGQSPQLLIYRMSNLASGVPDRFSGSGSGTAFTLRISRVEAEDVGVYYCMQHLEYPLTFGAGTKLEIK
notes: Purified Fab mutant
The molecule B6 displayed a 50% effective concentration (EC50) in assay [3] of 2.22 nM. This EC50 is about 3-fold lower than that of the molecule before.

B7: 144D2 N33I (Fab, V domains shown)
VH: EVQLVESGGGLVQPKGSLKLSCAASGFTFNAFAMNWVRQAPGKGLEWVARIRSKSNNYATYYADSVIDRFTISRDDSQSMLYLQMNNLKTEDTAMYYCVRGKEAGAYYAMDYWGQGTSVTVSS
VL: DIVMTQAAPSVPVTPGESVSISCRSSKSLLHSIGNTYLYWFLQRPGQSPQLLIYRMSNLASGVPDRFSGSGSGTAFTLRISRVEAEDVGVYYCMQHLEYPLTFGAGTKLEIK
notes: Purified Fab mutant
Regarding B7, a half-maximal effect in assay [3] (EC50) was put at 6.68 nM.

B8: 144D2 N33V (Fab, V domains shown)
VH: EVQLVESGGGLVQPKGSLKLSCAASGFTFNAFAMNWVRQAPGKGLEWVARIRSKSNNYATYYADSVIDRFTISRDDSQSMLYLQMNNLKTEDTAMYYCVRGKEAGAYYAMDYWGQGTSVTVSS
VL: DIVMTQAAPSVPVTPGESVSISCRSSKSLLHSVGNTYLYWFLQRPGQSPQLLIYRMSNLASGVPDRFSGSGSGTAFTLRISRVEAEDVGVYYCMQHLEYPLTFGAGTKLEIK
notes: Purified Fab mutant
The molecule B8 returned an EC50 in assay [3] of 5.72 nM.

B9: 144D2 G34V (Fab, V domains shown)
VH: EVQLVESGGGLVQPKGSLKLSCAASGFTFNAFAMNWVRQAPGKGLEWVARIRSKSNNYATYYADSVIDRFTISRDDSQSMLYLQMNNLKTEDTAMYYCVRGKEAGAYYAMDYWGQGTSVTVSS
VL: DIVMTQAAPSVPVTPGESVSISCRSSKSLLHSNVNTYLYWFLQRPGQSPQLLIYRMSNLASGVPDRFSGSGSGTAFTLRISRVEAEDVGVYYCMQHLEYPLTFGAGTKLEIK
notes: Purified Fab mutant
For the molecule B9, the EC50 in assay [3] worked out at 3.16 nM. This EC50 lies about 1.8-fold lower than the previous one.

B10: 144D2 M56T (Fab, V domains shown)
VH: EVQLVESGGGLVQPKGSLKLSCAASGFTFNAFAMNWVRQAPGKGLEWVARIRSKSNNYATYYADSVIDRFTISRDDSQSMLYLQMNNLKTEDTAMYYCVRGKEAGAYYAMDYWGQGTSVTVSS
VL: DIVMTQAAPSVPVTPGESVSISCRSSKSLLHSNGNTYLYWFLQRPGQSPQLLIYRTSNLASGVPDRFSGSGSGTAFTLRISRVEAEDVGVYYCMQHLEYPLTFGAGTKLEIK
notes: Purified Fab mutant
Molecule B10 registered a concentration for a half-maximal effect (EC50) in assay [3] of 2.69 nM.

B11: 144D2 G34I (Fab, V domains shown)
VH: EVQLVESGGGLVQPKGSLKLSCAASGFTFNAFAMNWVRQAPGKGLEWVARIRSKSNNYATYYADSVIDRFTISRDDSQSMLYLQMNNLKTEDTAMYYCVRGKEAGAYYAMDYWGQGTSVTVSS
VL: DIVMTQAAPSVPVTPGESVSISCRSSKSLLHSNINTYLYWFLQRPGQSPQLLIYRMSNLASGVPDRFSGSGSGTAFTLRISRVEAEDVGVYYCMQHLEYPLTFGAGTKLEIK
notes: Purified Fab mutant
B11 returned an EC50 in assay [3] of 3.87 nM.

B12: 144D2 M56G (Fab, V domains shown)
VH: EVQLVESGGGLVQPKGSLKLSCAASGFTFNAFAMNWVRQAPGKGLEWVARIRSKSNNYATYYADSVIDRFTISRDDSQSMLYLQMNNLKTEDTAMYYCVRGKEAGAYYAMDYWGQGTSVTVSS
VL: DIVMTQAAPSVPVTPGESVSISCRSSKSLLHSNGNTYLYWFLQRPGQSPQLLIYRGSNLASGVPDRFSGSGSGTAFTLRISRVEAEDVGVYYCMQHLEYPLTFGAGTKLEIK
notes: Purified Fab mutant
Turning to B12, the 50% effective concentration (EC50) in assay [3] was 4.85 nM.

B13: 144D2 G34T (Fab, V domains shown)
VH: EVQLVESGGGLVQPKGSLKLSCAASGFTFNAFAMNWVRQAPGKGLEWVARIRSKSNNYATYYADSVIDRFTISRDDSQSMLYLQMNNLKTEDTAMYYCVRGKEAGAYYAMDYWGQGTSVTVSS
VL: DIVMTQAAPSVPVTPGESVSISCRSSKSLLHSNTNTYLYWFLQRPGQSPQLLIYRMSNLASGVPDRFSGSGSGTAFTLRISRVEAEDVGVYYCMQHLEYPLTFGAGTKLEIK
notes: Purified Fab mutant
Regarding B13, the EC50 in assay [3] was 2.83 nM.

B14: 87D8 Fab antibody (Fab, V domains shown)
VH: EVQLVESGGGLVQPKGSLRLSCAASGFTFNTYAMNWVRQAPGKGLEWIARIRSKSNNYATYYADSVKDRFTISRDDSQSMLYLQMNNLKTEDTAMYYCVRGKEAGAYYAMDYWGQGTSVTVSS
VL: DIVMTQAAPSVPVTPGESVSISCRSSKSLLHSNGNTYLYWFLQRPGQSPQLLIYRMSNLASGVPDRFSGSGSGTAFTLRISRVEAEDVGVYYCMQHLEYPLTFGAGTKLELK
notes: also called clone 87D8
In the case of B14, in assay [4], the binding result is on record as “no binding”.

B15: 144D2 N33A (Fab, V domains shown)
VH: EVQLVESGGGLVQPKGSLKLSCAASGFTFNAFAMNWVRQAPGKGLEWVARIRSKSNNYATYYADSVIDRFTISRDDSQSMLYLQMNNLKTEDTAMYYCVRGKEAGAYYAMDYWGQGTSVTVSS
VL: DIVMTQAAPSVPVTPGESVSISCRSSKSLLHSAGNTYLYWFLQRPGQSPQLLIYRMSNLASGVPDRFSGSGSGTAFTLRISRVEAEDVGVYYCMQHLEYPLTFGAGTKLEIK
notes: Purified Fab mutant from E. coli TG1, Ni-NTA purified
Consider B15, for which, in assay [3], it took 8.27 nM to reach a half-maximal effect (EC50).

B16: 144D2 M56A (Fab, V domains shown)
VH: EVQLVESGGGLVQPKGSLKLSCAASGFTFNAFAMNWVRQAPGKGLEWVARIRSKSNNYATYYADSVIDRFTISRDDSQSMLYLQMNNLKTEDTAMYYCVRGKEAGAYYAMDYWGQGTSVTVSS
VL: DIVMTQAAPSVPVTPGESVSISCRSSKSLLHSNGNTYLYWFLQRPGQSPQLLIYRASNLASGVPDRFSGSGSGTAFTLRISRVEAEDVGVYYCMQHLEYPLTFGAGTKLEIK
notes: Purified Fab mutant
In turn, B16 showed a 50% effective concentration (EC50) in assay [3] of 4.71 nM. Compared with the last molecule, the EC50 is about 1.8-fold lower.
